In patent US20050064507:

Key:
[1] = target: T1, AF15q14 peptide GFLNEPLSSKSQRRKSLKLK (SEQ ID NO:132) (not fully specified)
T1 chain: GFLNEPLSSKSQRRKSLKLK

[2] = target: T2, ANK1 peptide AQIVKRASLKRGKQ (SEQ ID NO:90) (not fully specified)
T2 chain: AQIVKRASLKRGKQ

[3] = target: T3, ASIP peptide KKRSSKKEASMKKVVRP (SEQ ID NO:97) (not fully specified)
T3 chain: KKRSSKKEASMKKVVRP

[4] = target: T4, CACNA1C peptide RGFLRSASLGRRASFHLE (SEQ ID NO:96) (not fully specified)
T4 chain: RGFLRSASLGRRASFHLE

[5] = target: T5, CREB1 peptide EILSRRPSYRKILND (SEQ ID NO:106) (not fully specified)
T5 chain: EILSRRPSYRKILND

[6] = target: T6, FLJ20574 peptide GENVLKKSMKSRVKG (SEQ ID NO:113) (not fully specified)
T6 chain: GENVLKKSMKSRVKG

[7] = target: T7, KCNH2 peptide RQRKRKLSFRRRTDKD (SEQ ID NO:86) (not fully specified)
T7 chain: RQRKRKLSFRRRTDKD

[8] = target: T8, LIMK2 peptide KATTKKRTLRKNDRK (SEQ ID NO:108) (not fully specified)
T8 chain: KATTKKRTLRKNDRK

[9] = target: T9, MARCKS peptide PSPSNETPKKKKKRFSFKKS (SEQ ID NO:157) (not fully specified)
T9 chain: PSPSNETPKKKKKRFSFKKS

[10] = target: T10, MYBPC3 peptide LLKKRDSFRTPRDSKLE (SEQ ID NO:103) (not fully specified)
T10 chain: LLKKRDSFRTPRDSKLE

[11] = target: T11, MacMARCKS peptide KKKFSFKKPFKLSGLSFKRN (SEQ ID NO:162) (not fully specified)
T11 chain: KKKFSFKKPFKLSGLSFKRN

[12] = target: T12, NF1 peptide AGSFKRNSIKKIV (SEQ ID NO:102) (not fully specified)
T12 chain: AGSFKRNSIKKIV

[13] = target: T13, NIK peptide TEGKMARVAWKGKRRSKARK (SEQ ID NO:164) (not fully specified)
T13 chain: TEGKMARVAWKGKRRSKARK

[14] = target: T14, NR4A3 peptide KEVVRTDSLKGRRGR (SEQ ID NO:109) (not fully specified)
T14 chain: KEVVRTDSLKGRRGR

[15] = target: T15, PARIS1 peptide EYLERRASRRRAV (SEQ ID NO:89) (not fully specified)
T15 chain: EYLERRASRRRAV

[16] = target: T16, PPP1R14A peptide QKRHARVTVKYDRRE (SEQ ID NO:107) (not fully specified)
T16 chain: QKRHARVTVKYDRRE

[17] = target: T17, SDPR peptide EKIKRSSLKKVDSLKK (SEQ ID NO:104) (not fully specified)
T17 chain: EKIKRSSLKKVDSLKK

[18] = target: T18, SYTL4 peptide RQGKRKTSIKRDTVNPL (SEQ ID NO:87) (not fully specified)
T18 chain: RQGKRKTSIKRDTVNPL

[19] = target: T19, Urotensin-2 receptor peptide LYARLARAYRRSQRASFKRA (SEQ ID NO:159) (not fully specified)
T19 chain: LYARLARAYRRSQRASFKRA

[20] = target: T20, ankyrin R peptide DLIEGRKGAQIVKRASLKRG (SEQ ID NO:152) (not fully specified)
T20 chain: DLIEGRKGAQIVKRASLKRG

[21] = target: T21, calcium channel, voltage-dependent, L type, alpha peptide RDIRQSPKRGFLRSASLGRR (SEQ ID NO:147) (not fully specified)
T21 chain: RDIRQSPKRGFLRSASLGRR

[22] = target: T22, cytohesin-2 peptide VDPFYEMLAARKKRISVKKK (SEQ ID NO:150) (not fully specified)
T22 chain: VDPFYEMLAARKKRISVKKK

[23] = target: T23, dag kinase iota peptide NRKKKRTSFKRKA (SEQ ID NO:117) (not fully specified)
T23 chain: NRKKKRTSFKRKA

[24] = target: T24, gravin peptide KKFFTQGWAGWRKKTSFRKP (SEQ ID NO:154) (not fully specified)
T24 chain: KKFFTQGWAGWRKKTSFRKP

[25] = target: T25, p164-RhoGEF peptide PRLIRRGSKKRPAR (SEQ ID NO:82) (not fully specified)
T25 chain: PRLIRRGSKKRPAR

[26] = target: T26, p47phox peptide QAQRQIKRGAPPRRSSIRNA (SEQ ID NO:146) (not fully specified)
T26 chain: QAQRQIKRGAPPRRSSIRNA

[27] = target: T27, pkc-zeta peptide GLPAPGEDKSIYRRGSRRWR (SEQ ID NO:167) (not fully specified)
T27 chain: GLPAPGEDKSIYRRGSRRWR

[28] = target: T28, pleckstrin 1 peptide KAIKAIEGGQKFARKSTRRS (SEQ ID NO:126) (not fully specified)
T28 chain: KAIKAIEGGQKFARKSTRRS

[29] = target: T29, plectin peptide PLKEKKRERKTSSKSSVRKR (SEQ ID NO:125) (not fully specified)
T29 chain: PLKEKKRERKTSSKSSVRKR

[30] = target: T30, ribosomal protein S6 peptide AKRRRLSSLRASTSK (SEQ ID NO:120) (not fully specified)
T30 chain: AKRRRLSSLRASTSK

[31] = target: T31, slp4 peptide TYLLPDKSRQGKRKTSIKRD (SEQ ID NO:153) (not fully specified)
T31 chain: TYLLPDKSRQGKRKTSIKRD

B1: PKC-theta (protein)
chain: MSPFLRIGLSNFDCGSCQSCQGEAVNPYCAVLVKEYVESENGQMYIQKKPTMYPPWDSTFDAHINKGRVMQIIVKGKNVDLISETTVELYSLAERCRKNNGKTEIWLELKPQGRMLMNARYFLEMSDTKDMNEFETEGFFALHQRRGAIKQAKVHHVKCHEFTATFFPQPTFCSVCHEFVWGLNKQGYQCRQCNAAIHKKCIDKVIAKCTGSAINSRETMFHKERFKIDMPHRFKVYNYKSPTFCEHCGTLLWGLARQGLKCDACGMNVHHRCQTKVANLCGINQKLMAEALAMIESTQQARCLRDTEQIFREGPVEIGLPCSIKNEARPPCLPTPGKREPQGISWESPLDEVDKMCHLPEPELNKERPSLQIKLKIEDFILHKMLGKGSFGKVFLAEFKKTNQFFAIKALKKDVVLMDDDVECTMVEKRVLSLAWEHPFLTHMFCTFQTKENLFFVMEYLNGGDLMYHIQSCHKFDLSRATFYAAEIILGLQFLHSKGIVYRDLKLDNILLDKDGHIKIADFGMCKENMLGDAKTNTFCGTPDYIAPEILLGQKYNHSVDWWSFGVLLYEMLIGQSPFHGQDEEELFHSIRMDNPFYPRWLEKEAKDLLVKLFVREPEKRLGVRGDIRQHPLFREINWEELERKEIDPPFRPKVKSPFDCSNFDKEFLNEKPRLSFADRALINSMDQNMFRNFSFMNPGMERLIS
In the case of B1, the in vitro phosphorylation, 1 uM peptide (% of best substrate) [1] is reported as 34, the in vitro phosphorylation, 10 uM peptide (% of best substrate) [1] is reported as 40 and the in vitro phosphorylation (% of best substrate) [2] is reported as 38. It also gave an in vitro phosphorylation (% of best substrate) [3] of 31, an in vitro phosphorylation (% of best substrate) [4] of 21 and an in vitro phosphorylation (% of best substrate) [5] of 19. For the same protein, the in vitro phosphorylation (% of best substrate) [6] was 10, the in vitro phosphorylation (% of best substrate) [7] was 38 and the in vitro phosphorylation (% of best substrate) [8] was 32. For the same protein, the in vitro phosphorylation, 1 uM peptide (% of best substrate) [9] was 20, the in vitro phosphorylation, 10 uM peptide (% of best substrate) [9] was 23 and the in vitro phosphorylation (% of best substrate) [10] was 24. For the same protein, the in vitro phosphorylation, 1 uM peptide (% of best substrate) [11] was 14, the in vitro phosphorylation, 10 uM peptide (% of best substrate) [11] was 13 and the in vitro phosphorylation (% of best substrate) [12] was 28. It also gave an in vitro phosphorylation, 1 uM peptide (% of best substrate) [13] of 24, an in vitro phosphorylation, 10 uM peptide (% of best substrate) [13] of 20 and an in vitro phosphorylation (% of best substrate) [14] of 9. The in vitro phosphorylation (% of best substrate) [15] was 60, the in vitro phosphorylation (% of best substrate) [16] was 40 and the in vitro phosphorylation (% of best substrate) [17] was 25. The in vitro phosphorylation (% of best substrate) [18] was 65, the in vitro phosphorylation, 1 uM peptide (% of best substrate) [19] was 21 and the in vitro phosphorylation, 10 uM peptide (% of best substrate) [19] was 17. For the same protein, the in vitro phosphorylation, 1 uM peptide (% of best substrate) [20] was 31, the in vitro phosphorylation, 10 uM peptide (% of best substrate) [20] was 30 and the in vitro phosphorylation, 1 uM peptide (% of best substrate) [21] was 20. The in vitro phosphorylation, 10 uM peptide (% of best substrate) [21] was 69, the in vitro phosphorylation, 1 uM peptide (% of best substrate) [22] was 35 and the in vitro phosphorylation, 10 uM peptide (% of best substrate) [22] was 35. It also gave an in vitro phosphorylation, 1 uM peptide (% of best substrate) [23] of 84, an in vitro phosphorylation, 10 uM peptide (% of best substrate) [23] of 78 and an in vitro phosphorylation, 1 uM peptide (% of best substrate) [24] of 34. It also gave an in vitro phosphorylation, 10 uM peptide (% of best substrate) [24] of 21, an in vitro phosphorylation (% of best substrate) [25] of 49 and an in vitro phosphorylation, 1 uM peptide (% of best substrate) [26] of 33. The in vitro phosphorylation, 10 uM peptide (% of best substrate) [26] was 34, the in vitro phosphorylation, 1 uM peptide (% of best substrate) [27] was 12 and the in vitro phosphorylation, 10 uM peptide (% of best substrate) [27] was 14. It also gave an in vitro phosphorylation, 1 uM peptide (% of best substrate) [28] of 46, an in vitro phosphorylation, 10 uM peptide (% of best substrate) [28] of 45 and an in vitro phosphorylation, 1 uM peptide (% of best substrate) [29] of 39. For the same protein, the in vitro phosphorylation, 10 uM peptide (% of best substrate) [29] was 100, the in vitro phosphorylation, 1 uM peptide (% of best substrate) [30] was 51 and the in vitro phosphorylation, 10 uM peptide (% of best substrate) [30] was 51. For the same protein, the in vitro phosphorylation, 1 uM peptide (% of best substrate) [31] was 22 and the in vitro phosphorylation, 10 uM peptide (% of best substrate) [31] was 18.

B2: PKC-epsilon (protein)
chain: MVVFNGLLKIKICEAVSLKPTAWSLRHAVGPRPQTFLLDPYIALNVDDSRIGQTATKQKTNSPAWHDEFVTDVCNGRKIELAVFHDAPIGYDDFVANCTIQFEELLQNGSRHFEDWIDLEPEGRVYVIIDLSGSSGEAPKDNEERVFRERMRPRKRQGAVRRRVHQVNGHKFMATYLRQPTYCSHCRDFIWGVIGKQGYQCQVCTCVVHKRCHELIITKCAGLKKQETPDQVGSQRFSVNMPHKFGIHNYKVPTFCDHCGSLLWGLLRQGLQCKVCKMNVHRRCETNVAPNCGVDARGIAKVLADLGVTPDKITNSGQRRKKLIAGAESPQPASGSSPSEEDRSKSAPTSPCDQEIKELENNIRKALSFDNRGEEHRAASSPDGQLMSPGENGEVRQGQAKRLGLDEFNFIKVLGKGSFGKVMLAELKGKDEVYAVKVLKKDVILQDDDVDCTMTEKRILALARKHPYLTQLYCCFQTKDRLFFVMEYVNGGDLMFQIQRSRKFDEPRSRFYAAEVTSALMFLHQHGVIYRDLKLDNILLDAEGHCKLADFGMCKEGILNGVTTTTFCGTPDYIAPEILQELEYGPSVDWWALGVLMYEMMAGQPPFEADNEDDLFESILHDDVLYPVWLSKEAVSILKAFMTKNPHKRLGCVASQNGEDAIKQHPFFKEIDWVLLEQKKIKPPFKPRIKTKRDVNNFDQDFTREEPVLTLVDEAIVKQINQEEFKGFSYFGEDLMP
In the case of B2, the in vitro phosphorylation, 1 uM peptide (% of best substrate) [1] is reported as 47, the in vitro phosphorylation (% of best substrate) [2] is reported as 49 and the in vitro phosphorylation (% of best substrate) [3] is reported as 16. The in vitro phosphorylation (% of best substrate) [4] was 41, the in vitro phosphorylation (% of best substrate) [5] was 31 and the in vitro phosphorylation (% of best substrate) [6] was 10. It also gave an in vitro phosphorylation (% of best substrate) [7] of 63, an in vitro phosphorylation (% of best substrate) [8] of 8 and an in vitro phosphorylation, 1 uM peptide (% of best substrate) [9] of 12. For the same protein, the in vitro phosphorylation (% of best substrate) [10] was 21, the in vitro phosphorylation, 1 uM peptide (% of best substrate) [11] was 19 and the in vitro phosphorylation (% of best substrate) [12] was 14. The in vitro phosphorylation, 1 uM peptide (% of best substrate) [13] was 12, the in vitro phosphorylation (% of best substrate) [14] was 26 and the in vitro phosphorylation (% of best substrate) [15] was 45. For the same protein, the in vitro phosphorylation (% of best substrate) [16] was 7, the in vitro phosphorylation (% of best substrate) [17] was 17 and the in vitro phosphorylation (% of best substrate) [18] was 31. The in vitro phosphorylation, 1 uM peptide (% of best substrate) [19] was 25, the in vitro phosphorylation, 1 uM peptide (% of best substrate) [20] was 25 and the in vitro phosphorylation, 1 uM peptide (% of best substrate) [21] was 26. For the same protein, the in vitro phosphorylation, 1 uM peptide (% of best substrate) [22] was 20, the in vitro phosphorylation, 1 uM peptide (% of best substrate) [23] was 67 and the in vitro phosphorylation, 1 uM peptide (% of best substrate) [24] was 29. The in vitro phosphorylation (% of best substrate) [25] was 72, the in vitro phosphorylation, 1 uM peptide (% of best substrate) [26] was 28 and the in vitro phosphorylation, 1 uM peptide (% of best substrate) [27] was 6. For the same protein, the in vitro phosphorylation, 1 uM peptide (% of best substrate) [28] was 69, the in vitro phosphorylation, 1 uM peptide (% of best substrate) [29] was 48 and the in vitro phosphorylation, 1 uM peptide (% of best substrate) [30] was 56. It also gave an in vitro phosphorylation, 1 uM peptide (% of best substrate) [31] of 24.
